# Target: Lsm2/Lsm3;Lsm6/Lsm5/Lsm7;Lsm4-link-Lsm8 (human;human;human, UniProt Q9Y333;P62310;P62312;Q9Y4Y9;Q9UK45;Q9Y4Z0;O95777 …, ||)
# Assay: gel filtration co-elution
binder,measurement,value
GGCAAUUUUUGACAGUCUCUACGGAGACUG (structured_RNA) [U4-5'Δ],binding result,no binding
